Results: article doi:10.1101/2023.01.01.522448
Where “and” joins values, the source holds several entries; their conditions need not be identical. Equal values may be shown once.

Experiments:
[1] = biological target: recombinant L-asparaginase from Pseudomonas resinovorans IGS-131 (PrASNase) (Pseudomonas resinovorans IGS-131); experiment: cross-linking + SEC
[2] = biological target: recombinant L-asparaginase from Pseudomonas resinovorans IGS-131 (PrASNase) (Pseudomonas resinovorans IGS-131); experiment: SEC
[3] = biological target: recombinant L-asparaginase from Pseudomonas resinovorans IGS-131 (PrASNase) (Pseudomonas resinovorans IGS-131); experiment: SAXS
[4] = biological target: recombinant L-asparaginase from Pseudomonas resinovorans IGS-131 (PrASNase) (Pseudomonas resinovorans IGS-131); experiment: AUC
[5] = biological target: recombinant L-asparaginase from Pseudomonas resinovorans IGS-131 (PrASNase) (Pseudomonas resinovorans IGS-131); experiment: SEC; remark: listed apart in the source

recombinant L-asparaginase from Pseudomonas resinovorans IGS-131 (PrASNase) (enzyme)
stoichiometry N [1]: 2
stoichiometry N [2]: 2
stoichiometry N [3]: 2 and 4
percent present as dimer [4]: 4.8%
percent present as monomer [4]: 94.9%
stoichiometry N [5]: 2
